Measured values from patent publication US11833215B2, “CKIT antibody drug conjugates” (Novartis AG, priority 2014, dated 2023).
“Also recorded” adds a separate entry of the source.

How the values were obtained:
human cKIT = target: T1, human cKIT (Homo sapiens, UniProt P10721); assay: SPR (Biacore) affinity measurement; format: binding; settings: 25° C., 1:1 model
T1 construct: Human cKIT tr. variant 2 , residues 26-520-TAG; made in house; host or cells: HEK293 derived cell line 293FS, transient transfection
T1 sequence (P10721 with tags, fused parts or gaps isoform P10721-2): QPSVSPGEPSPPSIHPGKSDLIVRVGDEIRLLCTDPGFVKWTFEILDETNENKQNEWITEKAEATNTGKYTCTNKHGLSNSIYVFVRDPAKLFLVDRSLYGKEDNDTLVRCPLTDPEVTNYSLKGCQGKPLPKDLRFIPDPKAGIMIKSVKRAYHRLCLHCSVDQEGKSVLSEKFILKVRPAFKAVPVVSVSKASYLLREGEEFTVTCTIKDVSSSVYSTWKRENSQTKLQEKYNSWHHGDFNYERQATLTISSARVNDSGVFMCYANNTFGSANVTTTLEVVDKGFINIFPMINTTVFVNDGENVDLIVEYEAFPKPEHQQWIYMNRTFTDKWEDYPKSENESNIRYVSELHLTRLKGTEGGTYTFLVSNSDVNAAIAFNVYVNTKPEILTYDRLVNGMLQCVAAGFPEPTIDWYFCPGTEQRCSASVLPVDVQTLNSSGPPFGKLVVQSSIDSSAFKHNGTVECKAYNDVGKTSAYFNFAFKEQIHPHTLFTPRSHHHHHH
Description: (§1) Affinity of the antibodies to cKIT species orthologues and also to cKIT was determined using SPR technology using a Biacore® 2000 instrument (GE Healthcare, Pittsburgh, PA) and with CM5 sensor chips.
(§2) Briefly, HBS-P (0.01 M HEPES, pH 7.4, 0.15 M NaCl, 0.005% Surfactant P20) supplemented with 2% Odyssey® blocking buffer (Li-Cor Biosciences, Lincoln, NE) was used as the running buffer for all the experiments. The immobilization level and analyte interactions were measured by response unit (RU). Pilot experiments were performed to test and confirm the feasibility of the immobilization of the anti-human Fc antibody (Catalog number BR100839, GE Healthcare, Pittsburgh, PA) and the capture of the test antibodies.
(§3) For kinetic measurements, the experiments were performed in which the antibodies were captured to the sensor chip surface via the immobilized anti-human Fc antibody and the ability of the cKIT proteins to bind in free solution was determined. Briefly, 25 μg/ml of anti-human Fc antibody at pH 5 was immobilized on a CM5 sensor chip through amine coupling at flow rate of 5 μl/minute on all two flow cells to reach 10,500 RUs. 0.1-1 μg/ml of test antibodies were then injected at 10 μl/min for 1 minute. Captured levels of the antibodies were generally kept below 200 RUs. Subsequently, 3.125 −50 nM of cKIT receptor extracellular domains (ECD) were diluted in a 2-fold series and injected at a flow rate of 40 μl/min for 3 min over both reference and test flow cells. Table of tested ECDs is listed below (Table 6). Dissociation of the binding was followed for 10 min. After each injection cycle, the chip surface was regenerated with 3 M MgCl2 at 10 μl/min for 30 seconds.

rat cKIT = assay: SPR (Biacore) affinity measurement; format: binding; settings: 25° C., 1:1 model
Sequence of rat cKIT (as listed by the source): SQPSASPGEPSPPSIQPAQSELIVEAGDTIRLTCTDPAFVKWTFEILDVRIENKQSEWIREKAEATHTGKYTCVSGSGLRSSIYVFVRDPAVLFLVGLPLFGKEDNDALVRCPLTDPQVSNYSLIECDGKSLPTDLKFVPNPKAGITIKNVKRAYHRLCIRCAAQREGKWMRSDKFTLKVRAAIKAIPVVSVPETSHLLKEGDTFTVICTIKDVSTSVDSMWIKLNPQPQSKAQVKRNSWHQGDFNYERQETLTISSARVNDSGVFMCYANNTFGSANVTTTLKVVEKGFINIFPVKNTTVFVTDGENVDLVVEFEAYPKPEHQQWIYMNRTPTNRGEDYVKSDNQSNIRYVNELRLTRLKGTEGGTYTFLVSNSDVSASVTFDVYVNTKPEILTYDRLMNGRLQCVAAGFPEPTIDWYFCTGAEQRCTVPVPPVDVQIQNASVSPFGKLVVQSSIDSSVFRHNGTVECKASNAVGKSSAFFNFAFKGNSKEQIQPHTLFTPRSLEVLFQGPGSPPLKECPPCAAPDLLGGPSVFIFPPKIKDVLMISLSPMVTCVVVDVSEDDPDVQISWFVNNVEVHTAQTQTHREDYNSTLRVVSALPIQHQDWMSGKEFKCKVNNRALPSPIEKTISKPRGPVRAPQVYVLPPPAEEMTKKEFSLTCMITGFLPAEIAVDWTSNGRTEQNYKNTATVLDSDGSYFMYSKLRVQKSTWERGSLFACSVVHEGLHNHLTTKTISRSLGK
Description: as §1, §2, §3

mouse cKIT = target: T2, mouse cKIT (Mus musculus, UniProt P05532); assay: SPR (Biacore) affinity measurement; format: binding; settings: 25° C., 1:1 model
T2 construct: cKIT receptor extracellular domains (ECD) were diluted in a 2-fold series
T2 sequence (P05532 25-527 limits assumed): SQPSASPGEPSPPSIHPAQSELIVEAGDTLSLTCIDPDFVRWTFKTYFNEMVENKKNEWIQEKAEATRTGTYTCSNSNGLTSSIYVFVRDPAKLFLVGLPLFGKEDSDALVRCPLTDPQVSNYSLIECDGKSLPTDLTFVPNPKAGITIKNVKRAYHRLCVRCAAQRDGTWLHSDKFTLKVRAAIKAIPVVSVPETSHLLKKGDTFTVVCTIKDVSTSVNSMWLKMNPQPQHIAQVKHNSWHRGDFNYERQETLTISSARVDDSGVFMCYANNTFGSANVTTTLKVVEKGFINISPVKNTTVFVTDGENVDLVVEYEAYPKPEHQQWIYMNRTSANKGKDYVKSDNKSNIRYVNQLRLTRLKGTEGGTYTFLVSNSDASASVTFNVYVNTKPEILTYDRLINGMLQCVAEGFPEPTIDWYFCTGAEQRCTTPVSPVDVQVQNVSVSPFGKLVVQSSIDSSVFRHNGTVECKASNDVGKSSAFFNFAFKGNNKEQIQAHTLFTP
Description: as §1, §2, §3

[1] = system: surface cKIT on GIST-T1 cells; assay: cKIT Ab-mediated internalization by flow cytometry; format: cell-based; settings: 10 μg/ml, 37° C., 30 min to 24 hr
Description: The kinetics of cKIT antibody mediated internalization was evaluated by treating with antibody in a cell monolayer using a temperature shift method and flow cytometry readout. GIST-T1 (kindly provided by Dr. Takahiro Taguchi, Kochi U., Japan) cells were seeded at 2.5×10E5 cells/well in five 12-well tissue culture treated plates (BD Falcon 353043). The cells were incubated in a tissue culture incubator at 37° C. with 5% CO2 overnight. The following day medium was removed and replaced with 450 μl fresh medium. The cKIT antibodies NEG085, 20376 and an isotype control were prepared at 10×10 μg/ml concentration in appropriate cell culture medium and 50 μl of test cKIT antibody or isotype was added per well with final concentration of 10 μg/ml. All cells were incubated for 1 hr on ice, followed by two washes with 1 mL 1× Phosphate buffered saline (PBS) and resuspended in 500 μl cell culture medium. […] The following day, all samples were analyzed using the BD FACSCanto II 0 equipment using a HTS system (BD Biosciences, San Jose, CA). Samples were analyzed with FlowJo software to obtain the Geometric Mean values of fluorescence for the Phycoerythrin channel, FIG. 4A is a plot of % of initial cell surface binding vs Geometric Mean-PE 4° C. binding/Geometric Mean-PE timepoint at 37° C.×100.

B1: NEG085: anti-cKIT antibody of Table 3, VH SEQ ID NO 82, VL SEQ ID NO 91 (antibody, listed as Homo sapiens, V domains shown)
VH: EVQLVESGGGLVQPGGSLRLSCAASGFAFSGYYMAWVRQAPGKGLEWVANINYPGSSTYYLDSVKGRFTISRDNAKNSLYLQMNSLRAEDTAVYYCARGDYYGTTYWYFDVWGQGTTVTVSS
VL: DIQMTQSPSSLSASVGDRVTITCRASQSISSYLNWYQQKPGKAPKLLIYYTSRLQSGVPSRFSGSGSGTDFTLTISSLQPEDFATYYCQQGRRLWSFGGGTKVEIK
Human cKIT
  Affinity human cKIT (nM): nanomolar level
Rat cKIT
  Affinity to rat cKIT (nM): Not reactive
Mouse cKIT
  Affinity mouse cKIT (nM): Not reactive
[1]
  internalization of surface cKIT on GIST-T1 cells: mediate rapid internalization; also recorded: rapidly internalized
